This assay deals with Recombinant DnaJ-1-HA (Drosophila, UniProt Q24133 1-334). Kind of assay: co-IP.

Here are results for one molecule from paper PMC5841623 (Journal of molecular biology, 2016).

Sequence of Recombinant DnaJ-1-HA (Q24133 whole entry): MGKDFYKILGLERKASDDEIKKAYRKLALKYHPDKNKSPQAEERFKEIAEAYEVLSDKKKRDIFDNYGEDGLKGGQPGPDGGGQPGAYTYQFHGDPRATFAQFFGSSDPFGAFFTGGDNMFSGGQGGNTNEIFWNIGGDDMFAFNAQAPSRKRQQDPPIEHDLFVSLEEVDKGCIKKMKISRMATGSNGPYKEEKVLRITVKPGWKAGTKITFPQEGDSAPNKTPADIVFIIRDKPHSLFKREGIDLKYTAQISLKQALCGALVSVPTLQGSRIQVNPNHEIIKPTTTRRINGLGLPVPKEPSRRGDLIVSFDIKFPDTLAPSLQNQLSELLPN

B1: Recombinant His-MLF (natural protein, Drosophila, UniProt Q9NKV0-2 1-309, looked up)
chain: MSLFGALMGDFDDDLGLMNNHMNHTMNAMNMQMRSMNRLMNSFMPDPFMQVSPFDQGFQQNALMERPQMPAMPAMGLFGMPMMPNFNRLLNADIGGNSGASFCQSTVMTMSSGPDGRPQIYQASTSTKTGPGGVRETRRTVQDSRTGVKKMAIGHHIGERAHIIEKEQDMRSGQLEERQEFINLEEGEAEQFDREFTSRASRGAVQSRHHAGGMQAIMPARPAAHTSTLTIEPVEDDDDDDDDCVIQEQQPVRSSAGRHYSSAPTAPQNSIHPHPYAANPRRQQRAVKHFHTEDEAASSYKAVKRGKKK
In the case of B1, the binding result is “binds”.
